Like-named read-outs stand apart in the source and are kept apart here.
Legend:
[1] = target: T1, mouse Siglec15-his protein (mouse); experiment: indirect ELISA on coated mouse Siglec15-his
T1 construct: In house made
T1 chain: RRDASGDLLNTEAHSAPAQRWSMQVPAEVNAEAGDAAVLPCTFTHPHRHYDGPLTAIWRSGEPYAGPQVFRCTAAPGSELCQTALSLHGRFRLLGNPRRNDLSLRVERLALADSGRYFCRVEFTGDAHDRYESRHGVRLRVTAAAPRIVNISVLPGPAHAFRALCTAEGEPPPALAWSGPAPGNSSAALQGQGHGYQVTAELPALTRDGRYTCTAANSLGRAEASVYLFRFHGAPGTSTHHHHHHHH
Experimental: (§1) The anti-Siglec15 antibodies' cross-reactions to cynomolgus or mouse Siglec15 proteins were measured. Briefly, 96-well micro plates were coated with 100 μl of 2 μg/ml cynomolgus Siglec15-his protein (in house made with SEQ ID NO: 21), or 2 μg/ml mouse Siglec15-his protein (in house made with SEQ ID NO: 22) in carbonate/bicarbonate buffer (pH 9.6) for 2 hours at 37° C. ELISA plates were washed once with wash buffer (PBS+0.05% v/v Tween-20, PBST) and then blocked with 200 μl/well blocking buffer (5% w/v non-fatty milk in PBST) overnight at 4° C. Plates were washed 4 times and incubated with 100 μl serially diluted anti-Siglec15 antibodies of the disclosure or controls (starting at 66.7 nM, 5-fold serial dilution in PBST with 2.5% w/v non-fatty milk) for 40 minutes at 37° C. […] The reaction was stopped 4 minutes later at room temperature with 50 μl 1M H₂SO₄, and the absorbance of each well was read on a microplate reader using dual wavelength mode with 450 nm for TMB and 630 nm as the reference wavelength, then the OD (450-630) values were plotted against antibody concentration. Data was analyzed using Graphpad Prism software and EC₅₀ values were reported.

[2] = target: T1, mouse Siglec15-his protein; experiment: indirect ELISA on coated mouse Siglec15-his
Experimental: as §1

[3] = target: T2, human Siglec15-Fc protein (human); experiment: competitive ELISA: coated human Siglec15-Fc, blocked ligand biotin-labeled human LRRC4C-Fc
T2 construct: In house made; also called recombinant human Siglec15 protein with human IgG1 Fc at the C-terminus
Experimental: Serially diluted anti-Siglec15 antibodies or the controls (starting at 66.67 nM with a 5-fold serial dilution) in PBST with 2.5% w/v non-fatty milk were added to the Siglec15-Fc bound plates, 100 μl per well, and incubated with the human Siglec15-Fc protein at 37° C. for 40 minutes. Plates were washed 4 times again using wash buffer, then added and incubated for 40 minutes at 37° C. with 100 μl/well 290 ng/ml biotin-labeled human LRRC4C-Fc protein (prepared in-house with SEQ ID NO: 23). Plates were washed again using wash buffer. Thereafter, the plates were added with 100 μl/well streptavidin conjugated HRP (1:5000 dilution in PBST buffer, Jackson Immunoresearch, Cat #016-030-084) and incubated for 40 minutes at 37° C. Plates were washed again using wash buffer. Finally, TMB was added and the reaction was stopped using 1M H₂SO₄, and the absorbance of each well was read on a microplate reader using dual wavelength mode with 450 nm for TMB and 630 nm as the reference wavelength, then the OD (450-630) values were plotted against antibody concentration. Data was analyzed using Graphpad Prism software and IC₅₀ values were reported.

[4] = target: T3, human Siglec15-mouse Fc protein (human); experiment: cell based blocking FACS: human Siglec15-mouse Fc in solution, blocked ligand human LRRC4C on LRRC4C-3F12-1B9 cells
T3 construct: In house made
T3 chain: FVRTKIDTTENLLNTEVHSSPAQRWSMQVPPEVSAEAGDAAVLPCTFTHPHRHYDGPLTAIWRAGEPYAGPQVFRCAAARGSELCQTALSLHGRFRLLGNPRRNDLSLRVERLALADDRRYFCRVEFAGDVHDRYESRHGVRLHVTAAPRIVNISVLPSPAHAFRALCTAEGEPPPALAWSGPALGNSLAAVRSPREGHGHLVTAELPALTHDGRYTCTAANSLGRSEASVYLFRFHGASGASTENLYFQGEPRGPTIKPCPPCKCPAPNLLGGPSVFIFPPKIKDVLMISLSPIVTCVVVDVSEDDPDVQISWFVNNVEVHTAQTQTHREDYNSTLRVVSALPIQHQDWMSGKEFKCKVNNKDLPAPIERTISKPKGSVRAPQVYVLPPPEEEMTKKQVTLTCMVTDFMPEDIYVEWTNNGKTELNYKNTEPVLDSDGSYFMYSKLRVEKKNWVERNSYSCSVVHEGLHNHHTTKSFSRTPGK
Experimental: The activities of the anti-Siglec15 antibodies to block binding of Siglec15 protein to cell surface LRRC4C were evaluated by Flow Cytometry (FACS), using in house made LRRC4C-3F12-1B9 cells. Briefly, HEK-293 cells (ATCC #CRL-1573) were transfected with pCMV-T-P plasmid constructs with the nucleotide sequence encoding human LRRC4C (amino acid residues Met1-Ile640 of uniprot #Q9HCJ2) inserted between EcoRI and XbaI, following the instruction of lipofectamine 3000 transfection reagent (Thermo Fisher). A stable cell named LRRC4C-3F12-1B9 was chosen for subsequent cell based ligand-blocking assay.
Briefly, the anti-Siglec15 antibodies of the disclosure or controls were diluted with human Siglec15-mouse Fc protein (prepared in-house with SEQ ID NO: 26, 8 μg/ml […] in FACS buffer), starting at 66.67 nM with a 5-fold serial dilution, and incubated at room temperature for 40 minutes. Then, LRRC4C-3F12-1B9 cells were harvested from cell culture flasks, washed twice and re-suspended in PBS containing 2% v/v Fetal Bovine Serum (FACS buffer). Then, 1×10⁵ cells per well in 96 well-plates were incubated in 100 μL of the antibody/Siglec15-mouse Fc mixtures for 40 minutes at 4° C. […] Cells were washed twice and re-suspended in FACS buffer. Fluorescence was measured using a Becton Dickinson FACS Canto II-HTS equipment. Data was analyzed using Graphpad Prism software and IC₅₀ values were reported.

EC50 [1]: 419 pM
EC50 [2]: 402 pM
IC50 [3]: 855 pM
IC50 [4]: 707 pM
B1: anti-Siglec15 benchmark (ch5G12) (antibody, human IgG1, kappa, V domains shown)
VH: QVQLQQPGAELVKPGASVKMSCKASGYTFTSYWITWVIQRPGQGLEWIGDIYCGSDTMHYNEKFKNKATLTVDTSSSTAYMQLSSLTSEDSAVYYCARWWDYGSSYDYFDYWGQGTTLTVSS
VL: DIKMTQSPSSMYASLGERVTITCKASQDINSYLSWFQQKPGKSPKTLIYRANRLVDGVPSRFSGSGSGQDYSLTISSLEYEDMGIYYCLQYDEFPYTFGGGTKLEIKR
notes: ch5G12 (US 20190202912A1); also called BM; Siglec15-ch5G9

— patent US20230106715A1 (BIOSION, published 2023)
